From paper PMC10700433

These substances were tested against IgG4 control antibody (assay: BLI; Octet RED96; antibodies captured on FABG2 biosensor tips, recombinant FcRn in solution; association studied at physiological pH, dissociation at pH6).

mouse FcγRI, sequence (P26151 25-404): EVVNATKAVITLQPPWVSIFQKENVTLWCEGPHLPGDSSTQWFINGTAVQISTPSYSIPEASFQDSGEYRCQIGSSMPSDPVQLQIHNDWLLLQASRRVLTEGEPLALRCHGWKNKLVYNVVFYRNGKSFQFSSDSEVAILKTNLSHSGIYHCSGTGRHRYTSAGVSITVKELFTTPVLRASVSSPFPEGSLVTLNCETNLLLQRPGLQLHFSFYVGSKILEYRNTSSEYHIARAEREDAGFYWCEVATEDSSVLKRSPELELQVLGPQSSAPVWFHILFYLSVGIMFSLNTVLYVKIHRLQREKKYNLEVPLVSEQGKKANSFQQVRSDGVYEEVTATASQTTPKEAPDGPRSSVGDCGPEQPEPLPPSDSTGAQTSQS
mouse FcRn, sequence (Q61559 22-365): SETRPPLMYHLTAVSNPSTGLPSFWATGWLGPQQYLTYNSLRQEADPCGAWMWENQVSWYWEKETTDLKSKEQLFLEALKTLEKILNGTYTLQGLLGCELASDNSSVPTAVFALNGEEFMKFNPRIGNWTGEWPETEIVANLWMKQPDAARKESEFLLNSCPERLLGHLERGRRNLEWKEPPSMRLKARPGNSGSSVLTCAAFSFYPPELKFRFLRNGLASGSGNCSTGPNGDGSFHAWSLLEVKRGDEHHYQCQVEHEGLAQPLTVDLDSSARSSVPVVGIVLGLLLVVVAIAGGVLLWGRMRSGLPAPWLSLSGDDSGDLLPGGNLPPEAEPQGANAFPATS
human FcRn, sequence (P55899 24-365): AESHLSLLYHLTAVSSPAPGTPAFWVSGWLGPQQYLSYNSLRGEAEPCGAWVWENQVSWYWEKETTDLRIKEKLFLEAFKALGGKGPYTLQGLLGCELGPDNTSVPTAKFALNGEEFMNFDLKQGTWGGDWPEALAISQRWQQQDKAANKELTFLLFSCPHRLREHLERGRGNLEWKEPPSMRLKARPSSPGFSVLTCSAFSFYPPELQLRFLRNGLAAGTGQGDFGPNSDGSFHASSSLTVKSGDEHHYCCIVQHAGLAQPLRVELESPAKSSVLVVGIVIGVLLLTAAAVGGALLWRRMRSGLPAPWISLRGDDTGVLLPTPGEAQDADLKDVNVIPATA
mouse FcγRIV, sequence (A0A0B4J1G0 21-249): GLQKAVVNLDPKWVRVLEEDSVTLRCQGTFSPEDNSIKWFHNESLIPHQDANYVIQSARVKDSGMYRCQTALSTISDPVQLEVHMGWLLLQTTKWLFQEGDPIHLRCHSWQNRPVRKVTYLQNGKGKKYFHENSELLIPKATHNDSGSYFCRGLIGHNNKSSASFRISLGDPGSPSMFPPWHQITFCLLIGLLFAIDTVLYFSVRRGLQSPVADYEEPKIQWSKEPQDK

Row | Kd | Substance
1 | 200 nM | mouse FcRn (from UniProt Q61559 22-365) (receptor)
2 | 600 nM | human FcRn (from UniProt P55899 24-365) (receptor)

What follows are substances tested against IgG4 control antibody (assay: BLI; Octet RED96; antibodies captured on FABG2 biosensor tips, recombinant Fcγ receptors in solution at suitable concentration ranges; association and dissociation at physiological pH).

Row | Substance | Kd
3 | mouse FcγRI (from UniProt P26151 25-404) (receptor) | 200 nM
4 | mouse FcγRIV (from UniProt A0A0B4J1G0 21-249) (receptor) | 2000 nM
5 | human FcγRIII 176V (from UniProt P08637 17-254) (receptor) | 600000 nM

Second part, the substance after the results:

Row | Kd | Substance
6 | 600 nM | human FcγRIIb (from UniProt P31994 43-310) (receptor)
7 | 500 nM | human FcγRIIa (from UniProt P12318 34-317) (receptor)
8 | 700 nM | mouse FcγRIIb (from UniProt P08101 30-330) (receptor)
9 | 100 nM | mouse FcγRIII (from UniProt P08508 31-261) (receptor)
